This note sets out measurements from paper PMC9748336.

The test deals with HA-tagged PP2A catalytic Cα subunit p.Cys196Arg variant (human) (UniProt P67775). The test can be described thus: co-IP; HA pull-down: lysates of HEK293T cells transfected with HA-Cα incubated 1 h at 4°C with anti-HA-agarose beads in NENT100 buffer with 1 mg/ml BSA; washes with 300 and 150 mM NaCl; endogenous A subunit detected by anti-A immunoblot, quantified against the anti-HA signal, WT set at 100%. (Immunoblotting shows a protein as a band on a membrane.)

“endogenous PP2A A subunit (from UniProt P30153 1-589) (natural protein)” had a percent decrease of binding against Cα WT of 40%.
